Test results as given in patent US20050215503, “HIF oligonucleotide decoy molecules” (published 2005).

B1: 895/896 H3/PS (dsDNA)
DNA 1: CACCAGCGTACGTGCCTCAGG
DNA 2: CCTGAGGCACGTACGCTGGTG
modifications: 895: PS at 3 linkages from 3' end; 896: full PS
B2: 895/896 H5/H5 (dsDNA)
DNA 1: CACCAGCGTACGTGCCTCAGG
DNA 2: CCTGAGGCACGTACGCTGGTG
modifications: PS at 5 linkages from 3' end, both strands
B3: 895/896 H6/H6 (dsDNA)
DNA 1: CACCAGCGTACGTGCCTCAGG
DNA 2: CCTGAGGCACGTACGCTGGTG
modifications: PS at 6 linkages from 3' end, both strands
B4: 895/896 H2/H2 (dsDNA)
DNA 1: CACCAGCGTACGTGCCTCAGG
DNA 2: CCTGAGGCACGTACGCTGGTG
modifications: PS at 2 linkages from 3' end, both strands
B5: 895/896 PS/PO (dsDNA)
DNA 1: CACCAGCGTACGTGCCTCAGG
DNA 2: CCTGAGGCACGTACGCTGGTG
modifications: 895: full PS; 896: unmodified
B6: 895/896 PS/PS (dsDNA)
DNA 1: CACCAGCGTACGTGCCTCAGG
DNA 2: CCTGAGGCACGTACGCTGGTG
modifications: full PS both strands
B7: 895/896 H4/H4 (dsDNA)
DNA 1: CACCAGCGTACGTGCCTCAGG
DNA 2: CCTGAGGCACGTACGCTGGTG
modifications: PS at 4 linkages from 3' end, both strands
B8: 895/896 H5/PO (dsDNA)
DNA 1: CACCAGCGTACGTGCCTCAGG
DNA 2: CCTGAGGCACGTACGCTGGTG
modifications: 895: PS at 5 linkages from 3' end; 896: unmodified
B9: 895/896 H3/H3 (dsDNA)
DNA 1: CACCAGCGTACGTGCCTCAGG
DNA 2: CCTGAGGCACGTACGCTGGTG
modifications: PS at 3 linkages from 3' end, both strands
B10: decoy 841/842 double (dsDNA)
DNA 1: AGCGGACGTGCAGAAGTTGCACGTCCTCT
DNA 2: AGAGGACGTGCAACTTCTGCACGTCCGCT
B11: decoy 907 double (dsDNA)
DNA 1: GAAATACGTGCGTGTGTACGTGCAGG
DNA 2: CCTGCACGTACACACGCACGTATTTC
B12: decoy 819/820 double (dsDNA)
DNA 1: GAAATACGTGCGCTTTGTGTGTACGTGCAGGAA
DNA 2: TTCCTGCACGTACACACAAAGCGCACGTATTTC
B13: decoy 909 double (dsDNA)
DNA 1: AGCGGACGTGCAGATGCACGTCCTCT
DNA 2: AGAGGACGTGCATCTGCACGTCCGCT
B14: decoy 857/858 double (dsDNA)
DNA 1: GCGGACGTGCGGGAACCCACGTGTAGG
DNA 2: CCTACACGTGGGTTCCCGCACGTCCGC
B15: decoy 879/880 (dsDNA)
DNA 1: GGCTGCTGCAGACGTGCAGGTC
DNA 2: GACCTGCACGTCTGCAGCAGCC
B16: decoy 827/828 (dsDNA)
DNA 1: AGGTTACGTGCGGACA
DNA 2: TGTCCGCACGTAACCT
B17: decoy 809/810 (dsDNA)
DNA 1: AGGGCCGGACGTGGGGCCCC
DNA 2: GGGGCCCCACGTCCGGCCCT
B18: decoy 999 (dsDNA)
DNA 1: CCATGGCACGTGCCTCAGG
DNA 2: CCTGAGGCACGTGCCATGG
B19: decoy 887/888 (dsDNA)
DNA 1: GGCTGCACCGTACGTGCTGATC
DNA 2: GATCAGCACGTACGGTGCAGCC
B20: decoy 861/862 (dsDNA)
DNA 1: CTAATACGTGCCGCTG
DNA 2: CAGCGGCACGTATTAG
B21: decoy 985 (dsDNA)
DNA 1: CCAGCGTACGTGACTCAGG
DNA 2: CCTGAGTCACGTACGCTGG
B22: decoy 865/866 (dsDNA)
DNA 1: AGCAGACGTGCAGGCA
DNA 2: TGCCTGCACGTCTGCT
B23: decoy 933 (dsDNA)
DNA 1: CCAGCGTATGTGCCTCAGG
DNA 2: CCTGAGGCACATACGCTGG
B24: decoy 843/844 (dsDNA)
DNA 1: GTGCATACGTGGGCTCCA
DNA 2: TGGAGCCCACGTATGCAC
B25: decoy 811/812 (dsDNA)
DNA 1: ACGCTGAGTGCGTGCGGGAC
DNA 2: GTCCCGCACGCACTCAGCGT
B26: decoy 851/852 (dsDNA)
DNA 1: CGGAGTACGTGACGGAGC
DNA 2: GCTCCGTCACGTACTCCG
B27: decoy 823/824 (dsDNA)
DNA 1: TGCATACGTGGGCTCCAACAG
DNA 2: CTGTTGGAGCCCACGTATGCA
B28: decoy 883/884 (dsDNA)
DNA 1: AGAAGACGTGCAGGAT
DNA 2: ATCCTGCACGTCTTCT
B29: decoy 869/870 (dsDNA)
DNA 1: AGCAGACGTGCAGGGT
DNA 2: ACCCTGCACGTCTGCT
B30: decoy 891/892 (dsDNA)
DNA 1: GGCTGCTGCATACGTGCAGGTC
DNA 2: GACCTGCACGTATGCAGCAGCC
B31: decoy 853/854 (dsDNA)
DNA 1: TTGCTTACGTGCGCCCGG
DNA 2: CCGGGCGCACGTAAGCAA
B32: decoy 901 (dsDNA)
DNA 1: CACGTGCATACGTGGGCTCCA
DNA 2: TGGAGCCCACGTATGCACGTG
B33: decoy 881/882 (dsDNA)
DNA 1: GGCTGCAGGAGACGTGGAGAA
DNA 2: TTCTCCACGTCTCCTGCAGCC
B34: decoy 849/850 (dsDNA)
DNA 1: GCCTACACGTGGGTTCCC
DNA 2: GGGAACCCACGTGTAGGC
B35: decoy 983 (dsDNA)
DNA 1: CCAGCGTACGTGTCTCAGG
DNA 2: CCTGAGACACGTACGCTGG
B36: decoy 937 (dsDNA)
DNA 1: CCAGCGTAGGTGCCTCAGG
DNA 2: CCTGAGGCACCTACGCTGG
B37: decoy 863/864 (dsDNA)
DNA 1: AGCAGACGTGCAGGAT
DNA 2: ATCCTGCACGTCTGCT
B38: decoy 935 (dsDNA)
DNA 1: CCAGCGTAAGTGCCTCAGG
DNA 2: CCTGAGGCACTTACGCTGG
B39: decoy 885/886 (dsDNA)
DNA 1: TACAGACGTGCAGGTC
DNA 2: GACCTGCACGTCTGTA
B40: decoy 845/846 (dsDNA)
DNA 1: GAGCGTACGTGCCTCAGG
DNA 2: CCTGAGGCACGTACGCTC
B41: decoy 825/826 (dsDNA)
DNA 1: AGGAGACGTGCGAGAA
DNA 2: TTCTCGCACGTCTCCT
B42: decoy 875/876 (dsDNA)
DNA 1: TGCAGACGTGCAGGTC
DNA 2: GACCTGCACGTCTGCA
B43: decoy 903 (dsDNA)
DNA 1: CACCTGCATACGTGGGCTCCA
DNA 2: TGGAGCCCACGTATGCAGGTG
B44: decoy 889/890 (dsDNA)
DNA 1: TGCATACGTGCAGGTC
DNA 2: GACCTGCACGTATGCA
B45: decoy 817/818 (dsDNA)
DNA 1: CTGCCGACGTGCGCTCCGGAG
DNA 2: CTCCGGAGCGCACGTCGGCAG
B46: decoy 981 (dsDNA)
DNA 1: CCAGCGTACGTGGCTCAGG
DNA 2: CCTGAGCCACGTACGCTGG
B47: decoy 997 (dsDNA)
DNA 1: CCGGGGCACGTGCCCCAGG
DNA 2: CCTGGGGCACGTGCCCCGG

Molecular target: T1, HIF-1 (HIF-1alpha/HIF-1beta (ARNT) heterodimer) (UniProt Q16665;P27540 Q16665:1-826,P27540:2-789)
Test: competition; 2.5-fold molar excess
Settings: protein: extract; tags: none (endogenous, nuclear extract)

T1 sequence (Q16665 whole entry, chain 1 of 2): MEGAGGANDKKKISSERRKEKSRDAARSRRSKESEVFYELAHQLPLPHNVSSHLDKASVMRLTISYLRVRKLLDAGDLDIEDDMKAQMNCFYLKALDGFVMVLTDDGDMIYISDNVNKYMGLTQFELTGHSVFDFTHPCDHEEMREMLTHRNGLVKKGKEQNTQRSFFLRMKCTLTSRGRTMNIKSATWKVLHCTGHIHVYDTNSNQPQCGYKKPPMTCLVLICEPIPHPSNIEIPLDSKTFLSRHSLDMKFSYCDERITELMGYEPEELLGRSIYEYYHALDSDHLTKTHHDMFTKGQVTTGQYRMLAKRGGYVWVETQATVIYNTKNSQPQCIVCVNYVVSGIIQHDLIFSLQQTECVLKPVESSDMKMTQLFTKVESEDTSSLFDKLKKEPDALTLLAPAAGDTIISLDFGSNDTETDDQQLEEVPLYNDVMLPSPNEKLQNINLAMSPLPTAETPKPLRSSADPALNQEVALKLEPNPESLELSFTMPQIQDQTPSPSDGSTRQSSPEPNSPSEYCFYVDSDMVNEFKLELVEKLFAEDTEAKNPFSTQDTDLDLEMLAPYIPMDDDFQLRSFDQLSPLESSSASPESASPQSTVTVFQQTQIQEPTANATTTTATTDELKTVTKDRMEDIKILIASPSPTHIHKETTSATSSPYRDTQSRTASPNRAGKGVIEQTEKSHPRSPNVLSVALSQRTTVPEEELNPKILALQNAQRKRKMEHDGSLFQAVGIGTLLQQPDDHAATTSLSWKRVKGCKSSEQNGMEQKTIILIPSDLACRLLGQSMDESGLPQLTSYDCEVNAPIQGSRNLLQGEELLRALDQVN
T1 sequence (P27540 2-789, chain 2 of 2): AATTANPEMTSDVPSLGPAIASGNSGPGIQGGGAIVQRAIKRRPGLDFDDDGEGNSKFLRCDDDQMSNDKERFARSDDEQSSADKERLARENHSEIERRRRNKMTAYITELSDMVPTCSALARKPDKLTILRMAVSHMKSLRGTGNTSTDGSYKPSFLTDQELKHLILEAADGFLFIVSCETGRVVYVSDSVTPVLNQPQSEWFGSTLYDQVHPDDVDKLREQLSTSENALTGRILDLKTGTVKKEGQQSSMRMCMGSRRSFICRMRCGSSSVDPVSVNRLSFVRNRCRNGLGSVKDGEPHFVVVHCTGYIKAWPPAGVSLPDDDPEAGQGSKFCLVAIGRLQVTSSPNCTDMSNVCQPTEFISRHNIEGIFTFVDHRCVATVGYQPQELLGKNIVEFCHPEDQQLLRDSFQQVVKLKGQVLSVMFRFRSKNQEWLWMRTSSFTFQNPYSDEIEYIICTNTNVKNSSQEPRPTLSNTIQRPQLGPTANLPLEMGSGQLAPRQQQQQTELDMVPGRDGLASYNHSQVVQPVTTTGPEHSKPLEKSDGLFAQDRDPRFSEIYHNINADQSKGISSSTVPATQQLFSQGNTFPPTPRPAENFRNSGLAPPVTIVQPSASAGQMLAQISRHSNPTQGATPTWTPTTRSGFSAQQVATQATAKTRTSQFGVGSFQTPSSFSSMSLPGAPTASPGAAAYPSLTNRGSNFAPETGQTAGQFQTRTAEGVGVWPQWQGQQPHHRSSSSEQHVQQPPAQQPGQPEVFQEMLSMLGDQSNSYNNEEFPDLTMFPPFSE

**Q.** For B1, which binding signal is on record?
**A.** 1.38 ratio

**Q.** With B2 as the binder, how does the binding signal read?
**A.** 1.34 ratio

**Q.** How did the binding signal turn out when B3 was run?
**A.** 1.01 ratio

**Q.** How did the binding signal turn out when B4 was run?
**A.** 0.86 ratio

**Q.** For B5, which binding signal is on record?
**A.** 0.52 ratio

**Q.** How did the binding signal turn out when B6 was run?
**A.** 0.98 ratio

**Q.** With B7 as the binder, how does the binding signal read?
**A.** 1.42 ratio

**Q.** How did the binding signal turn out when B8 was run?
**A.** 1.27 ratio

**Q.** For B9, which binding signal is on record?
**A.** 1.33 ratio

Molecular target: T1, HIF-1 (HIF-1alpha/HIF-1beta (ARNT) …)
Test: competition; TransAM; two sites
Settings: protein: extract; tags: none (endogenous, nuclear extract)
Experimental: (§1) To assess the relative affinities of oligonucleotides for a HIF-1α containing complex, the HIF-1 TransAM assay (Active Motif, Catalog # 47096) was utilized. The assay was performed according to manufacturer's instructions. Briefly, a double-stranded oligonucletide containing the hypoxia response element (HRE) was immobilized on a 96-well plate. A nuclear extract containing HIF-1α complexes was incubated and allowed to bind to the immobilized oligonucleotide. The unbound material was washed away and the bound HIF-1α detected using an antibody that specificially recognizes HIF-1α. The anti-HIF-1α antibody was detected by a secondary antibody labeled with horseradish peroxidase (HRP), and the amount of HRP in each well was measured using a calorimetric substrate reaction and read using a microplate spectrophotometer.
(§2) The ability of candidate decoy molecules to compete for binding of HIF-1α to the HRE element-immobilized on the plate were measured and compared to reveal relative binding affinities. Candidate decoys were added in increasing molar ratios (relative to the amount of oligo immobilized on the plate) to compete for binding to the HIF-1α containing complexes. The amounts of decoys added to the assay included 0.625, 1.25, 2.5, 5, 10 and 20 fold molar excess. A well containing a competing decoy able to bind HIF-1α with high affinity would give a lower absorbance reading as compared to a decoy with low affinity for HIF-1α. All potential decoys were then compared and ranked in order to assess their relative binding affinities.
(§3) The screen was conducted using different decoy concentrations. For each UV absorbance reading, normalization was done by calculating the ratio of absorbance readings of sample vs. wild type control. The bigger ratio represents less competition of binding with HIF-1α when compared with wild-type control. The smaller (smaller than 1.0 or close to 1.0) ratios represent better binding or better competition.

**Q.** With B10 as the binder, how does the binding signal read?
**A.** 0.99 ratio

**Q.** B11 was tested. Which binding signal did it give?
**A.** 0.91 ratio

**Q.** B12 was tested. Which binding signal did it give?
**A.** 1.16 ratio

**Q.** Which binding signal does the source give for B13 here?
**A.** 1.72 ratio

**Q.** B14 was tested. Which binding signal did it give?
**A.** 2.46 ratio

Molecular target: T1, HIF-1 (HIF-1alpha/HIF-1beta (ARNT) …)
Test: competition; TransAM
Settings: protein: extract; tags: none (endogenous, nuclear extract)
Experimental: as §1, §2, §3

**Q.** B15 was tested. Which binding signal did it give?
**A.** 1.4 ratio

**Q.** Which binding signal does the source give for B16 here?
**A.** 4.48 ratio

**Q.** B17 was tested. Which binding signal did it give?
**A.** 4.57 ratio

**Q.** Which binding signal does the source give for B18 here?
**A.** 1.3 ratio

**Q.** For B19, which binding signal is on record?
**A.** 1.89 ratio

**Q.** How did the binding signal turn out when B20 was run?
**A.** 2.18 ratio

**Q.** With B21 as the binder, how does the binding signal read?
**A.** 0.91 ratio

**Q.** Which binding signal does the source give for B22 here?
**A.** 2.56 ratio

**Q.** How did the binding signal turn out when B23 was run?
**A.** 3.47 ratio

**Q.** B24 was tested. Which binding signal did it give?
**A.** 1.7 ratio

**Q.** Which binding signal does the source give for B25 here?
**A.** 3.9 ratio

**Q.** B26 was tested. Which binding signal did it give?
**A.** 1.41 ratio

**Q.** Which binding signal does the source give for B27 here?
**A.** 4.4 ratio

**Q.** How did the binding signal turn out when B28 was run?
**A.** 4.37 ratio

**Q.** How did the binding signal turn out when B29 was run?
**A.** 2.28 ratio

**Q.** Which binding signal does the source give for B30 here?
**A.** 1.21 ratio

**Q.** B31 was tested. Which binding signal did it give?
**A.** 1.73 ratio

**Q.** For B32, which binding signal is on record?
**A.** 1.6 ratio

**Q.** Which binding signal does the source give for B33 here?
**A.** 3.62 ratio

**Q.** Which binding signal does the source give for B34 here?
**A.** 2.66 ratio

**Q.** B35 was tested. Which binding signal did it give?
**A.** 1.3 ratio

**Q.** For B36, which binding signal is on record?
**A.** 2.49 ratio

**Q.** Which binding signal does the source give for B37 here?
**A.** 2.15 ratio

**Q.** B38 was tested. Which binding signal did it give?
**A.** 2.43 ratio

**Q.** With B39 as the binder, how does the binding signal read?
**A.** 4.46 ratio

**Q.** How did the binding signal turn out when B40 was run?
**A.** 1.59 ratio

**Q.** How did the binding signal turn out when B41 was run?
**A.** 5.1 ratio

**Q.** Which binding signal does the source give for B42 here?
**A.** 2.63 ratio

**Q.** Which binding signal does the source give for B43 here?
**A.** 1.94 ratio

**Q.** B44 was tested. Which binding signal did it give?
**A.** 4.14 ratio

**Q.** B45 was tested. Which binding signal did it give?
**A.** 4.81 ratio

**Q.** Which binding signal does the source give for B46 here?
**A.** 1.7 ratio

**Q.** How did the binding signal turn out when B47 was run?
**A.** 1.28 ratio
